Laboratory results published in the supplement of paper PMC9876800.

Tested on: peptide library, one residue held at a place counted from the S/T acceptor
Assay: relative phosphorylation of the sub-library (ratio to the mean residue at this position); higher = residue favoured
How it was run: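 Relative sub-library phosphorylation is the ratio of each sub-library's signal to the mean residue at that position. The signal came from phosphorimaging of spots on streptavidin membranes, quantified by densitometry, after purified recombinant kinases reacted with biotinylated degenerate peptide sub-libraries in 384-well plates. Reactions held 50 μM peptide and 50 μM ATP spiked with γ-32P-ATP for 90 min under kinase-specific conditions.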

RPS6KB2, construct: Full length, human, sequence (Q9UBS0 whole entry, looked up): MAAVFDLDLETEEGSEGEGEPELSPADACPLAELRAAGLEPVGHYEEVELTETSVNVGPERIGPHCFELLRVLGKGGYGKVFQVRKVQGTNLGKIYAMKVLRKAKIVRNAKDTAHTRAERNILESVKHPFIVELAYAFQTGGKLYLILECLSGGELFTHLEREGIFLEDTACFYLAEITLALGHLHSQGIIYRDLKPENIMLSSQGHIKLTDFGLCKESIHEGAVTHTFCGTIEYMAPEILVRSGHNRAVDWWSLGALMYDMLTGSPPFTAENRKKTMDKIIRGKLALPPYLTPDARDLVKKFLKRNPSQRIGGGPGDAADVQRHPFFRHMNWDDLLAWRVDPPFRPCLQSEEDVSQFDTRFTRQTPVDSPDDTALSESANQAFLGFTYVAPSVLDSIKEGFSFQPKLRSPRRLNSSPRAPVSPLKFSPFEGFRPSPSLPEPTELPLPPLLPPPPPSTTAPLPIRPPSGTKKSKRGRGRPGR
STK38, construct: Full length, human, sequence (Q15208 whole entry, looked up): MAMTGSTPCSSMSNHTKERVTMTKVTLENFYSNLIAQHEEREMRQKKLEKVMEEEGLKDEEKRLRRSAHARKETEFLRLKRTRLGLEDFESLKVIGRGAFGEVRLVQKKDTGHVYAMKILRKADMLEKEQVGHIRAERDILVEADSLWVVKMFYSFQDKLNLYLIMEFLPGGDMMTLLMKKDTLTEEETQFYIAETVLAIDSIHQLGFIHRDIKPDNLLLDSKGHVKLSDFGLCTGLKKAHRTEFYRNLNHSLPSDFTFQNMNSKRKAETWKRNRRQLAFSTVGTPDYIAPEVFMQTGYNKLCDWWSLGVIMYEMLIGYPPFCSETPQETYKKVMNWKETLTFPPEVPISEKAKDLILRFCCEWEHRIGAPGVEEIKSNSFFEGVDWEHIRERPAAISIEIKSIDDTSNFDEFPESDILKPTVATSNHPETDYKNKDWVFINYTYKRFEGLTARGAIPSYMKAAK

PRKACA, construct: Full length, human (from UniProt P17612)
relative phosphorylation
Settings | at +1 | at +2 | at +3 | at +4 | at -1 | at -2 | at -3 | at -4 | at -5
A fixed | 0.926 | 1.32 | 0.946 | 0.869 | 0.966 | 0.373 | 0.581 | 1.11 | 1.08
D fixed | 0.659 | 1.28 | 1.04 | 1.17 | 0.57 | 0.148 | 0.148 | 0.696 | 0.581
E fixed | 0.547 | 0.718 | 0.99 | 1.26 | 0.468 | 0.122 | 0.159 | 0.757 | 0.606
F fixed | 1.33 | 1.06 | 0.999 | 0.813 | 0.713 | 0.19 | 0.197 | 0.637 | 0.996
G fixed | 0.81 | 1.09 | 1.06 | 1.1 | 1.26 | 0.308 | 0.503 | 1.24 | 1.19
H fixed | 0.909 | 1.75 | 1.32 | 1.13 | 1.29 | 0.538 | 1.14 | 1.07 | 1.16
I fixed | 1.33 | 0.697 | 0.625 | 0.91 | 0.334 | 0.147 | 0.152 | 0.606 | 0.671
K fixed | 1.06 | 0.686 | 0.888 | 0.791 | 1.84 | 3.87 | 2.61 | 1.93 | 1.86
L fixed | 1.41 | 0.719 | 0.919 | 0.885 | 0.874 | 0.227 | 0.152 | 0.751 | 0.715
M fixed | 1.2 | 0.772 | 0.774 | 0.898 | 1.07 | 0.198 | 0.192 | 0.837 | 0.748
N fixed | 0.887 | 1.05 | 1.11 | 1.11 | 1.34 | 0.299 | 0.305 | 0.839 | 0.894
P fixed | 0.293 | 1.03 | 1.43 | 1.52 | 1.27 | 0.197 | 0.63 | 0.941 | 0.898
Q fixed | 1.03 | 1.15 | 1.01 | 1.07 | 0.951 | 0.563 | 0.644 | 0.982 | 0.783
R fixed | 1.04 | 0.818 | 1.04 | 0.971 | 1.76 | 9.26 | 8.72 | 2.43 | 2.05
V fixed | 1.33 | 0.953 | 0.696 | 0.779 | 0.468 | 0.155 | 0.179 | 0.631 | 0.744
W fixed | 1.27 | 0.905 | 1.16 | 0.999 | 0.775 | 0.208 | 0.324 | 0.772 | 1.13
Y fixed | 0.967 | 0.992 | 1 | 0.732 | 1.04 | 0.199 | 0.373 | 0.771 | 0.892
pThr fixed | 0.891 | 0.743 | 0.951 | 1.62 | 0.312 | 0.225 | 0.261 | 0.625 | 0.644
pTyr fixed | 0.993 | 1.03 | 1.14 | 1.42 | 0.798 | 0.214 | 0.283 | 0.742 | 0.703

RPS6KB2, construct: Full length, human (from UniProt Q9UBS0)
relative phosphorylation
Settings | at +1 | at +2 | at +3 | at +4 | at -1 | at -2 | at -3 | at -4 | at -5
A fixed | 0.79 | 1.22 | 1.17 | 1 | 0.797 | 0.703 | 0.597 | 0.963 | 0.777
D fixed | 0.72 | 0.659 | 0.823 | 1.07 | 1.08 | 0.468 | 0.415 | 0.699 | 0.634
E fixed | 1.07 | 0.594 | 0.891 | 0.933 | 0.764 | 0.467 | 0.386 | 0.709 | 0.569
F fixed | 1.32 | 0.706 | 0.912 | 0.863 | 0.822 | 0.626 | 0.459 | 0.705 | 0.611
G fixed | 0.854 | 1.27 | 1.14 | 1.2 | 0.76 | 0.701 | 0.554 | 1.07 | 0.961
H fixed | 0.971 | 1.58 | 1.18 | 1.17 | 1.01 | 1.11 | 0.903 | 1.05 | 1
I fixed | 1.22 | 0.745 | 0.82 | 0.733 | 0.734 | 0.552 | 0.421 | 0.737 | 0.571
K fixed | 0.989 | 1.09 | 1.08 | 1.19 | 1.63 | 2.59 | 2.04 | 1.97 | 2.19
L fixed | 0.979 | 0.781 | 0.897 | 0.774 | 0.835 | 0.866 | 0.475 | 0.647 | 0.584
M fixed | 1.11 | 0.961 | 0.869 | 0.849 | 0.903 | 0.702 | 0.453 | 0.77 | 0.566
N fixed | 1.06 | 1.51 | 1.06 | 1.03 | 1.59 | 0.803 | 0.625 | 0.938 | 0.784
P fixed | 0.614 | 0.914 | 1.05 | 1.25 | 0.931 | 0.548 | 0.55 | 0.937 | 0.834
Q fixed | 1.13 | 1.02 | 1.17 | 1.1 | 1.03 | 0.882 | 0.731 | 1.08 | 0.945
R fixed | 0.954 | 1.52 | 1.01 | 0.973 | 1.44 | 3.95 | 6.7 | 2.31 | 3.84
V fixed | 1.09 | 0.88 | 0.849 | 0.747 | 0.855 | 0.58 | 0.425 | 0.794 | 0.607
W fixed | 0.979 | 0.776 | 1.1 | 1.16 | 0.774 | 0.674 | 0.697 | 0.828 | 0.734
Y fixed | 1.15 | 0.778 | 0.98 | 0.952 | 1.03 | 0.772 | 0.573 | 0.789 | 0.789
pThr fixed | 1.17 | 0.868 | 0.923 | 1.34 | 0.624 | 0.484 | 0.446 | 0.703 | 0.596
pTyr fixed | 1.39 | 0.96 | 1.2 | 1.32 | 1.8 | 0.552 | 0.473 | 0.767 | 0.779

STK38, construct: Full length, human (from UniProt Q15208)
relative phosphorylation
Settings | at +1 | at +2 | at +3 | at +4 | at -1 | at -2 | at -3 | at -4 | at -5
A fixed | 0.75 | 1.35 | 0.73 | 0.791 | 0.743 | 0.739 | 0.655 | 0.978 | 0.83
D fixed | 0.673 | 1.2 | 0.723 | 1.06 | 0.728 | 0.6 | 0.558 | 0.704 | 0.609
E fixed | 0.644 | 0.483 | 0.631 | 0.807 | 0.524 | 0.494 | 0.476 | 0.71 | 0.477
F fixed | 0.893 | 0.79 | 1.04 | 0.894 | 0.545 | 0.758 | 0.413 | 0.596 | 0.557
G fixed | 1.36 | 1.33 | 1.23 | 1.16 | 1.45 | 0.936 | 0.771 | 1.09 | 0.88
H fixed | 1.04 | 2.51 | 1.3 | 1.03 | 1.18 | 1.56 | 1.35 | 1.26 | 3.01
I fixed | 1.07 | 0.495 | 0.738 | 0.891 | 0.325 | 0.38 | 0.31 | 0.575 | 0.498
K fixed | 0.845 | 0.783 | 1.12 | 1.13 | 1.94 | 2.24 | 2.21 | 2.17 | 2.44
L fixed | 0.932 | 0.516 | 1.02 | 0.897 | 0.752 | 0.451 | 0.377 | 0.618 | 0.546
M fixed | 1.59 | 0.575 | 0.831 | 0.929 | 0.751 | 0.571 | 0.455 | 0.745 | 0.477
N fixed | 1.13 | 1.11 | 0.954 | 1.16 | 1.34 | 1.23 | 0.841 | 0.878 | 0.795
P fixed | 0.335 | 0.69 | 0.872 | 1.28 | 1.65 | 0.83 | 1.18 | 1.04 | 0.749
Q fixed | 1.15 | 0.982 | 0.938 | 1.12 | 1.17 | 0.974 | 0.886 | 0.966 | 0.737
R fixed | 1.06 | 0.87 | 1.27 | 1.1 | 1.61 | 3.03 | 4.9 | 2.46 | 2.35
V fixed | 0.965 | 1.01 | 0.729 | 0.835 | 0.477 | 0.421 | 0.35 | 0.6 | 0.542
W fixed | 1.4 | 1.32 | 1.59 | 1.05 | 0.777 | 1.05 | 0.637 | 0.884 | 0.867
Y fixed | 1.18 | 0.992 | 1.29 | 0.865 | 1.03 | 0.727 | 0.636 | 0.733 | 0.636
pThr fixed | 1.01 | 0.848 | 0.709 | 0.92 | 0.546 | 0.635 | 0.572 | 0.738 | 0.545
pTyr fixed | 0.731 | 0.745 | 0.819 | 0.623 | 0.559 | 0.525 | 0.613 | 0.547 | 0.515
